± gives the standard deviation of the averaged measurements.
Experiment: total protein half-life in vivo (active degradation + dilution); higher = more stable protein
[1] = E. coli NCM3722 delta-clpP delta-lon delta-hslV, growth: N-lim chemostat, doubling time 6 h
[2] = E. coli NCM3722 delta-clpP, growth: N-lim chemostat, doubling time 6 h
[3] = E. coli NCM3722 delta-hslV, growth: N-lim chemostat, doubling time 6 h
[4] = E. coli NCM3722 delta-lon, growth: N-lim chemostat, doubling time 6 h
[5] = E. coli NCM3722 delta-smpB, growth: N-lim chemostat, doubling time 6 h
[6] = wild type E. coli NCM3722, growth: C-lim chemostat, doubling time 3 h
[7] = wild type E. coli NCM3722, growth: C-lim chemostat, doubling time 6 h
[8] = wild type E. coli NCM3722, growth: C-lim chemostat, doubling time 12 h
[9] = wild type E. coli NCM3722, growth: N-lim chemostat, doubling time 6 h
[10] = wild type E. coli NCM3722, growth: N-lim chemostat, doubling time 12 h
[11] = wild type E. coli NCM3722, growth: P-lim chemostat, doubling time 6 h
[12] = wild type E. coli NCM3722, growth: P-lim chemostat, doubling time 12 h

| Sequence | total protein half-life in vivo [1] [h] | total protein half-life in vivo [2] [h] | total protein half-life in vivo [3] [h] | total protein half-life in vivo [4] [h] | total protein half-life in vivo [5] [h] | total protein half-life in vivo [6] [h] | total protein half-life in vivo [7] [h] | total protein half-life in vivo [8] [h] | total protein half-life in vivo [9] [h] | total protein half-life in vivo [10] [h] | total protein half-life in vivo [11] [h] | total protein half-life in vivo [12] [h] |
| --- | --- | --- | --- | --- | --- | --- | --- | --- | --- | --- | --- | --- |
| MRVTDFSFELPESLIAHYPMPERSSCRLLSLDGPTGALTHGTFTDLLDKLNPGDLLVFNNTRVIPARLFGRKASGGKIEVLVERMLDDKRILAHIRASKAPKPGAELLLGDDESINATMTARHGALFEVEFNDERSVLDILNSIGHMPLPPYIDRPDEDADRELYQTVYSEKPGAVAAPTAGLHFDEPLLEKLRAKGVEMAFVTLHVGAGTFQPVRVDTIEDHIMHSEYAEVPQDVVDAVLAAKARGNRVIAVGTTSVRSLESAAQAAKNDLIEPFFDDTQIFIYPGFQYKVVDALVTNFHLPESTLIMLVSAFAGYQHTMNAYKAAVEEKYRFFSYGDAMFITYNPQAINERVGE [P0A7F9] | 4.09 ± 0.78 | 3.64 ± 0.2 | 4.44 ± 1.4 | 4.49 ± 0.24 | 3.41 ± 0.096 | 2.85 ± 0.04 | 4.82 ± 0.32 | 7.45 ± 0.19 | 3.66 ± 0.14 | 5.03 ± 0.34 | 5.46 ± 0.24 | 9.48 ± 0.17 |
| MRYDKELTENEMIRQKILQQLLEWIECNLEHPISIEDIAQKSGYSRRNIQLLFRNFMHVPLGEYIRKRRLCRAAILVRLTAKSMLDIALSLHFDSQQSFSREFKKLFGCSPREYRHRDYWDLANIFPSFLIRQQQKTECRLINFPETPIFGNSFKYDIEVSNKSPDEEVKLRRHHLARCMKNFKTDIYFVSTFEPSTKSVDLLTVETFAGTVCEYADMPKEWTTTRGLYDPTHVIWTQA | > 8 | – | – | – | – | – | – | – | – | – | – | – |
| MRYHGDMLLTTPVISTLKQNYPDAKIDMLLYQDTIPILSENPEINALYGISNKGAGTFDKIKNVLSLIKTLRANNYDLVINLTDQWMVALLVRCLPARMKISQLYGHRQHGIWKKSFTHLAPIHGTHIVERNLSVLEPLGITDFYTDTTMSYAEDCWKKMRRELDALGVKDHYVVIQPTARQIFKCWDNDKFSKVIDALQQRGYQVVLTCGPSADDLACVDEIARGCETKPITGLAGKTRFPELGALIDHAVLFIGVDSAPGHIAAAVKTPVISLFGATDHVFWRPWTENIIQFWAGNYQKMPTRHELDRNKKYLSVIPAEDVIAATEKLLPEDAPSADRNAQL | 6.088 ± 0.042 | 6.21 ± 0.39 | 6.87 ± 0.63 | – | 4.85 ± 0.32 | 3.141 ± 0.0067 | 6.09 ± 0.63 | 11.7 ± 0.39 | 5.89 ± 0.19 | 11.9 ± 0.99 | 5.59 ± 0.42 | 11.3 ± 1.1 |
| MRYIKSITQQKLSFLLAIYIGLFMNGAVFYRRFGSYAHDFTVWKGISAVVELAATVLVTFFLLRLLSLFGRRSWRILASLVVLFSAGASYYMTFLNVVIGYGIIASVMTTDIDLSKEVVGLNFILWLIAVSALPLILIWNNRCRYTLLRQLRTPGQRIRSLAVVVLAGIMVWAPIRLLDIQQKKVERATGVDLPSYGGVVANSYLPSNWLSALGLYAWARVDESSDNNSLLNPAKKFTYQAPQNVDDTYVVFIIGETTRWDHMGIFGYERNTTPKLAQEKNLAAFRGYSCDTATKLSLRCMFVRQGGAEDNPQRTLKEQNIFAVLKQLGFSSDLYAMQSEMWFYSNTMADNIAYREQIGAEPRNRGKPVDDMLLVDEMQQSLGRNPDGKHLIILHTKGSHFNYTQRYPRSFAQWKPECIGVDSGCTKAQMINSYDNSVTYVDHFISSVIDQVRDKKAIVFYAADHGESINEREHLHGTPRELAPPEQFRVPMMVWMSDKYLENPANAQAFAQLKKEADMKVPRRHVELYDTIMGCLGYTSPDGGINENNNWCHIPQAKEAAAN | 4 ± 0.3 | – | 4.35 ± 1.7 | 6.45 ± 0.89 | 3.61 ± 0.3 | 2.87 ± 0.19 | 4.84 ± 0.023 | 8.037 ± 0.012 | 5.66 ± 0.37 | 8.75 ± 0.59 | 4.14 ± 1.1 | 6.76 ± 1.3 |
| MRYPVTLTPAPEGGYMVSFVDIPEALTQGETVAEAMEAAKDALLTAFDFYFEDNELIPLPSPLNSHDHFIEVPLSVASKVLLLNAFLQSEITQQELARRIGKPKQEITRLFNLHHATKIDAVQLAAKALGKELSLVMV | – | – | – | – | – | – | – | – | – | – | 1.45 | 3.2 ± 0.94 |
| MRYSKLTMLIPCALLLSACTTVTPAYKDNGTRSGPCVEGGPDNVAQQFYDYRILHRSNDITALRPYLSDKLATLLSDASRDNNHRELLTNDPFSSRTTLPDSAHVASASTIPNRDARNIPLRVDLKQGDQGWQDEVLMIQEGQCWVIDDVRYLGGSVHATAGTLRQSIENR | – | 5.61 ± 1.2 | 6.1159 ± 0.0003 | – | 6.06 ± 0.54 | 2.89 ± 0.099 | 6.3 ± 0.064 | 12.9 ± 1 | 6.03 ± 0.21 | 12.6 ± 1.1 | 6.22 ± 0.44 | 13.7 ± 0.35 |
| MSAFTPASEVLLRHSDDFEQSRILFAGDLQDDLPARLDTAASRAHTQQFHHWQVLSRQMGDNARFSLVATADDVADCDTLIYYWPKNKPEAQFQLMNLLSLLPVGTDIFVVGENRSGVRSAEQMLADYAPLNKVDSARRCGLYFGRLEKQPVFDAEKFWGEYSVDGLTVKTLPGVFSRDGLDVGSQLLLSTLTPHTKGKVLDVGCGAGVLSVAFARHSPKIRLTLCDVSAPAVEASRATLAANGVEGEVFASNVFSEVKGRFDMIISNPPFHDGMQTSLDAAQTLIRGAVRHLNSGGELRIVANAFLPYPDVLDETFGFHEVIAQTGRFKVYRAIMTRQAKKG | 6.65 ± 1.3 | 5.678 ± 0.047 | 6.2 ± 0.67 | 6.21 ± 0.59 | 5.56 ± 0.52 | 2.93 ± 0.21 | 6.41 ± 0.39 | 11.6 ± 0.39 | 5.68 ± 0.71 | 11.1 ± 1.8 | 6 ± 0.36 | 12.9 ± 0.31 |
